# In patent publication CN114933651A (dated 2022):
# Target: SARS-CoV-2RBD-hFc蛋白 (SARS-CoV-2; human)
binder,measurement,value
"R14纳米抗体 (alpaca-derived nanobody R14, with C-terminal hexa-His tag) (VHH) VHH: QVQLQESGGGLVQPGGSLRLSCAVSGFTLDYYAIGWFRQAPGKEREGVSCISSSDGSTSYADSVKGRFTISRDNAKNTVYLQMNSLKPEDTALYYCAATPATYYSGRYYYQCPAGGMDYWGQGTQVTVSS",Kd,< 0.1 nM
